{
  "source": "patent US11001846B2",
  "about": "“Aptamers, nucleic acid molecules, polynucleotides, synthetic antibodies compositions for detecting PRRS viruses and treating PRRS virus infection” (AEROVIRUS TECHNOLOGIES INC., priority 2015, dated 2021)",
  "key": {"MARC-145 cells": {"system": "MARC-145 cells", "details": "no virus; FIG. 10c"}, "type 2 PRRSV": {"system": "type 2 PRRSV", "details": "after MTT screening of 10 candidates", "description": "Using various tetrazolium (MTT) colorimetric assay procedures^[xxxvi], these aptamers have been “screened” to identify the ones having the highest and fastest binding capabilities for detection and therapeutics purposes for both types of PRRSV. It should be pointed out that the aptamer having the quickest binding efficiency but not necessarily the highest binding strength is the most suitable one for the biosensor."}, "various PRRSV strains": {"system": "various PRRSV strains", "test": "In-vivo protection of swine against various PRRSV strains (Example 4)", "details": "15 ug/Kg, treatment on the day of infection; each strain 40TCID50/ml; FIG. 13a", "protocol": "(§1) Swine were inoculated intranasally with sub-lethal infectious fluid containing 40TCID50/ml PRRS virus (LHVA-93-3) with or without 2.5 nmole A505 aptamer for different time intervals. Pig body weight was monitored for 2 weeks. Viral titer in the lungs was determined by the CPE titration method (OIE Terrestrial Manual—May 2015, Chapter 2.8.7—Porcine Reproductive and Respiratory Syndrome, section 1.1.3). Other pigs were sacrificed 6 days following viral inoculation and lungs were removed and homogenized in PBS 0.1% BSA (10% w/v). Following homogenization, samples were centrifuged to remove debris and stored at −80° C.\n(§2) The cells/viruses were incubated for 2-5 days and observe daily for a CPE. At day 2, seed macrophages in new microtitre plates. Fifty (50) μl of the supernatants were transferred from the plates of the first passage to the corresponding wells of the freshly seeded plates (second passage). The wells were incubated for 2-5 days and observed daily for a CPE. The results of the CPE assays were presented as log TCID50.\nWere implemented as described hereinabove. A dose of 15 ug/Kg of A505 was used."}, "[1]": {"system": "M-S-S-GP5 peptidic complex", "test": "ELISA reverse screening: binding to M-S-S-GP5 peptidic complex, type 2", "details": "type 2 PRRSV complex", "protocol": "ssDNA aptamers were denatured at 80° C. for 10 min and then cooled on ice for 10 min. Aptamers (30 nmole) were mixed with 25 μg of M-S-S-GP5 peptidic complex (further described in Example 6 below) in 500 μl selection buffer (50 mM Tris-HCl; pH 7.4, 5 mM KCl, 100 mM NaCl, 1 mM MgCl2 tRNA, 0.2% BSA) at 37° C. for 30 min. Aptamer-peptide complex was purified by adding the 25 μl Ni-NTA superflow and amplified by PCR using primers directed to the common T3 sequences in the aptamer library, and 3′-primer (i.e. -[…]-3′). SELEX was repeated 3 times, following which amplified nucleotides were transformed into E. coli. PCR conditions for SELEX included 5 min 95° C./1 min 95° C./1 min 55° C./1 min 72° C./10 min 72° C. and 100 pmole of each primer.\nSelected ssDNA molecules from each individual clone were biotinylated using the B-T3 which is same sequence with 5′ primer (T3 primer), and Klenow fragment (2 unit/ml). To prepare single stranded biotin conjugated CoocSeq5 aptamer for the reverse screening, T3 Primer was Biotin labelled. A 96-well flat bottom ELISA plate was prepared by coating each well with 100 μl of streptavidin (100 μg/ml) diluted in 0.1 M NaHCO3 following by a 37° C. overnight incubation. Following several washings with PBS, wells were blocked with 200 μl of PBS containing 1% BSA for 2 hours at room temperature and subsequent washing three times with PBS-T (10 mM PBS containing 0.05% (v/v) Tween-20). […]\nHigh binding capacity ELISA plates (Immunoplate, Nunc) were coated with 100 μl allantoic fluid containing 500 TCID50 of various PRRS virus strains diluted in phosphate buffered saline (PBS) by incubating at 4° C. overnight. […] Following this incubation period, plates were washed five times in PBS-T and bound antibodies were detected using horseradish peroxidase labelled goat anti-mouse IgG conjugates (HRP). […] Reaction was terminated with 50 μl of 2M H2SO4, plates were read with a multichannel spectrophotometer at 570 nm."}, "LHVA-93-3 PRRS virus": {"system": "LHVA-93-3 PRRS virus", "test": "In-vivo protection of swine from PRRSV infection (Example 3)", "protocol": "Swine—SPF American Yorkshire swine at the age of 10-12 weeks were purchased. The selected swine were all exempt of PRRSV, SIV, and Mycoplasma Hyopneumoniae.\nas §1, §2\nFor lung histology, pigs were sacrificed at day 7 and lungs were removed into 10% neutral buffered formalin (pH 7.0). Lungs were then sectioned and stained with haemotoxylin and eosin.\nThe antiviral properties of A505 were determined in vivo prior to and following viral infection. Briefly, the swine were divided into four groups designated ‘untreated’, ‘0 day’, ‘+1 day’ and ‘+2 day’. Each pig was challenged with 40 TCID50/ml of LHVA-93-3 PRRS viruses. Pigs in ‘0 day’ group were inoculated with a mixture of the virus and 2.5 μmole/ml A505, intranasally (i.n.). Pigs in ‘+1 day’ and ‘+2 day’ groups were inoculated with 2.5 μmole/ml A505, in 1 day or 2 days following virus infection, respectively. PRRS infection was monitored by three parameters, including (i) body weight loss during 14 days following virus treatment; (ii) lung virus titre; (iii) histological examination of lungs—sections were taken 7 days following virus inoculation."}, "[2]": {"system": "type-1 Lelystad PRRS virus", "test": "Strain-specific neutralization (FIG. 11), type 1 strain", "type": "cell-based, PRRSV", "protocol": "In Vitro Viral Protection Prior to Viral Infection PAMs or MARC-145 cells were plated on 96 well plates (7×10^4/well) 24 hours prior to the experiment. Each well was washed twice with DPBS prior to treating the cells with various amounts of A505 (12.5 to 2000 pmole) at 37° C. for the indicated time points. Cells were then washed twice with DPBS and infected with 500 TCID50 LHVA-3 (or NVSL or VR-2332 or Lelystad) for 1 hour in enriched HBSS. Following incubation, cells were transferred to growth medium and incubated at 37° C. for 72 hours. Thereafter an MTT assay was implemented as described."}, "[3]": {"system": "type 2 PRRSV (VR2332, LHVA-93-3, NVSL-93-2335)", "test": "Strain-specific neutralization (FIG. 11), type 2 strains", "type": "cell-based"}},
  "note": "Entries after “also recorded” stand apart in the source; their conditions may differ.",
  "data": [
    {"molecule": "A505: ssDNA aptamer binding type 2 PRRSV M-S-S-GP5 complex (nucleic acid, DNA, backbone and methylation of C not given here) DNA: GGGCGACCCTGAAGAGTTTGTAATCTGCGATTTTAAAGTTGAGTCGTCGCGAAACGGTGAAAGCCGTAGGTTGCCC", "values": [
      {"measurement": "morphology of cells treated with aptamer alone", "setting": "MARC-145 cells", "result": "did not affect the morphology of the cells"},
      {"measurement": "binding capabilities from biosensing and therapeutic perspectives", "setting": "type 2 PRRSV", "result": "highest binding capabilities"},
      {"measurement": "prevention of infection (lung virus titer) by various strains", "setting": "various PRRSV strains", "result": "efficient in preventing the infection by all tested strains of PRRSV"},
      {"measurement": "binding to the M-S-S-GP5 complex/heterodimer", "setting": "[1]", "result": "highly significant differences from the control ssDNA; also recorded: binding capacity to the M-S-S-GP5 complex; also recorded: found to bind the M-S-S-GP5 heterodimer"},
      {"measurement": "body weight loss", "setting": "LHVA-93-3 PRRS virus; 14 days, treatment groups +2 day, 0 day, +1 day vs control group, FIG. 12a", "result": "significantly lower weight loss and enhanced recovery"},
      {"measurement": "protection equivalent to lung virus titer difference", "setting": "LHVA-93-3 PRRS virus; '0 day' group", "result": "over 99%"},
      {"measurement": "difference in lung virus titer compared to the non-treated group", "setting": "LHVA-93-3 PRRS virus; '0 day' group, 2.5 μmole/ml A505 i.n. mixed with virus, 40 TCID50/ml, FIG. 12b", "result": "more than 2 log"},
      {"measurement": "protection in lung virus titer, treatment after infection", "setting": "LHVA-93-3 PRRS virus; '+1 day' and '+2 day' groups", "result": "Further protection"},
      {"measurement": "reduction of viral load in the lungs vs infected group", "setting": "LHVA-93-3 PRRS virus; all three A505-treated groups, six days after infection, p<0.05, FIG. 12b", "result": "statistically significant"},
      {"measurement": "lung histology, inflamed areas", "setting": "LHVA-93-3 PRRS virus; sections 7 days after virus inoculation, intranasal A505", "result": "reduces the inflamed areas in lungs"},
      {"measurement": "effect on type-1 Lelystad PRRS virus", "setting": "[2]", "result": "has not effect"},
      {"measurement": "neutralization of PRRS virus strains", "setting": "[3]", "result": "only the type 2 PRRSV have been neutralized"}
    ]}
  ]
}
